Measurements: PMC12047440, “LINE-1 ribonucleoprotein condensates bind DNA to enable nuclear entry during mitosis” (Science Advances, 2024)
Residue numbers refer to the chain shown, from its start. Names may count otherwise. “And” between values parts separate entries of the source, which are not always exact repeats. Equal entries are not always repeated.

Legend:
ΔStammer-ORF1p (human) = assay: mass photometry; purified ORF1p alone, landing on a glass coverslip; 300 nM ORF1p in 20 mM Hepes pH 7.5, 50 mM KCl, 1 mM MgCl2, 1 mM DTT; also a protein concentration series, a KCl series and 150 mM KCl; monomers to trimers, trimers to hexamers and higher-order oligomers
ORF1p WT [1] = biological target: T1, ORF1p WT (Homo sapiens, UniProt Q9UN81 1-338); assay: fluorescence anisotropy; 50 mM KCl; 20 mM Hepes pH 7.5, 50 mM KCl (150 or 300 mM in Fig. S1D rows), 1 mM MgCl2, 1 mM DTT; 1 nM 6-FAM oligo; temperature not stated; conditions: protein: recombinant, tags: tag removed, N-terminal G left, chain copies: 3
ORF1p WT [2] = biological target: T1, ORF1p WT; assay: fluorescence anisotropy; 300 mM KCl; 20 mM Hepes pH 7.5, 50 mM KCl (150 or 300 mM in Fig. S1D rows), 1 mM MgCl2, 1 mM DTT; 1 nM 6-FAM oligo; temperature not stated; conditions: protein: recombinant; tags: tag removed, N-terminal G left; chain copies: 3; label: 5' 6-FAM (anisotropy); unstructured
His-TEV-ORF1p = biological target: T2, His-TEV-ORF1p (Homo sapiens, UniProt Q9UN81 1-338); assay: fluorescence anisotropy; 50 mM KCl; 20 mM Hepes pH 7.5, 50 mM KCl (150 or 300 mM in Fig. S1D rows), 1 mM MgCl2, 1 mM DTT; 1 nM 6-FAM oligo; temperature not stated; conditions: protein: recombinant, tags: uncleaved N-terminal His-TEV, C-terminal ybbR, chain copies: 3
T2 chain: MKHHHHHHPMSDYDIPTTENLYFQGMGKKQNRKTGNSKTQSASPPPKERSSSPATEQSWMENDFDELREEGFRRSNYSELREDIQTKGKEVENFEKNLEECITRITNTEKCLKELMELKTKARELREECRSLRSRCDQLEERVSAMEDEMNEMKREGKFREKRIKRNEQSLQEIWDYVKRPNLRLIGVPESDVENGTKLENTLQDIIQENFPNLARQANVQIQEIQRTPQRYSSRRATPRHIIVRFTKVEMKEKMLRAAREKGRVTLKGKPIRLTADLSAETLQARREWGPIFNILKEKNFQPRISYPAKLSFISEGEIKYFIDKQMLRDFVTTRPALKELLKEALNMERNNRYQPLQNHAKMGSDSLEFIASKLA

K3A/K4A-ORF1p = K3A/K4A-ORF1p (Homo sapiens, UniProt Q9UN81 1-338, K3A;K4A); assay: as above; conditions: protein: recombinant, tags: tag removed, N-terminal G left, chain copies: 3
Sequence of K3A/K4A-ORF1p (Q9UN81 other isoform, or with tags, fused parts or gaps K3A;K4A): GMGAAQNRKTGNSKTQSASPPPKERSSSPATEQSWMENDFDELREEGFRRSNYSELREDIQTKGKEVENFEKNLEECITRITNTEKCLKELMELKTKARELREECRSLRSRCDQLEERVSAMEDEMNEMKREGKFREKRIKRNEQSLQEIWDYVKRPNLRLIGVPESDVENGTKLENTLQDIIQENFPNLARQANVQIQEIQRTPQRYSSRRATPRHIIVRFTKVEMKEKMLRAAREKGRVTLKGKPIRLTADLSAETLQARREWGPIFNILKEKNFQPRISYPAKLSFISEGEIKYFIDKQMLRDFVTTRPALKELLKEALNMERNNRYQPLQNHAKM

ΔStammer-ORF1p = ΔStammer-ORF1p (Homo sapiens, UniProt Q9UN81 1-338, del91-93); assay: as above; conditions: protein: recombinant, tags: tag removed by TEV, N-terminal G left, chain copies: 3
ORF1p WT [3] = biological target: T1, ORF1p WT; assay: fluorescence anisotropy; 150 mM KCl; 20 mM Hepes pH 7.5, 50 mM KCl (150 or 300 mM in Fig. S1D rows), 1 mM MgCl2, 1 mM DTT; 1 nM 6-FAM oligo; temperature not stated; conditions: protein: recombinant; tags: tag removed, N-terminal G left; chain copies: 3; label: 5' 6-FAM (anisotropy); unstructured
ORF1p WT [4] = biological target: T3, ORF1p WT (Homo sapiens, UniProt Q9UN81); assay: mass photometry; one trimer per RNA; Anisotropy: 20 mM Hepes pH 7.5, 50 mM KCl, 1 mM MgCl2, 1 mM DTT, 1 nM 6-FAM oligo, temperature not stated; DNA curtains: 50, 150 or 300 mM KCl, RNP premix 1 min at room temperature; conditions: protein: recombinant; tags: tag removed, N-terminal G left; chain copies: 3
ORF1p WT [5] = biological target: T3, ORF1p WT; assay: mass photometry; two-trimer peak more prominent; Anisotropy: 20 mM Hepes pH 7.5, 50 mM KCl, 1 mM MgCl2, 1 mM DTT, 1 nM 6-FAM oligo, temperature not stated; DNA curtains: 50, 150 or 300 mM KCl, RNP premix 1 min at room temperature; conditions: protein: recombinant; tags: tag removed, N-terminal G left; chain copies: 3
ORF1p WT [6] = biological target: T3, ORF1p WT; assay: mass photometry; second peak, two trimers per RNA; Anisotropy: 20 mM Hepes pH 7.5, 50 mM KCl, 1 mM MgCl2, 1 mM DTT, 1 nM 6-FAM oligo, temperature not stated; DNA curtains: 50, 150 or 300 mM KCl, RNP premix 1 min at room temperature; conditions: protein: recombinant; tags: tag removed, N-terminal G left; chain copies: 3
[7] = biological target: the molecule itself; assay: mass photometry; purified ORF1p alone, landing on a glass coverslip; 300 nM ORF1p in 20 mM Hepes pH 7.5, 50 mM KCl, 1 mM MgCl2, 1 mM DTT; also a protein concentration series, a KCl series and 150 mM KCl; monomers to trimers, trimers to hexamers and higher-order oligomers
[8] = label: 5' 6-FAM (anisotropy), unstructured
[9] = label: 5' 6-FAM on strand 1 (anisotropy), blunt

Q: How did the stoichiometry N (ΔStammer-ORF1p (human)) turn out when ΔStammer-ORF1p (natural protein) was run?
A: 6

B1: 30 bp RNA/DNA hybrid (DNA:RNA)
RNA: ACCAUCAUCAAAGACCAAAAGUAGAUAAAA
DNA: TTTTATCTACTTTTGGTCTTTGATGATGGT
Q: B1 was tested. Which Kd (ORF1p WT [1]; label: 5' 6-FAM on RNA, blunt) did it give?
A: 4.68 nM

Q: Which results are given for ACCAUCAUCAAAGACCAAAAGUAGAUAAAA (ssRNA) [30 nt RNA]?
A: Kd (ORF1p WT [2]): 11.9 nM; Kd (His-TEV-ORF1p; [8]): 17.7 nM; Kd (K3A/K4A-ORF1p; [8]): 11.1 nM; Kd (ORF1p WT [1]; [8]): 3.89 nM; Kd (ΔStammer-ORF1p; [8]): 8.06 nM; Kd (ORF1p WT [3]): 11.3 nM

Q: With AAAAAAAAAAAAAAAAAAAAAAAAAAAAAA (ssRNA) [30 nt poly(A)] as the molecule, how does the Kd (ORF1p WT [1]; label: 5' 6-FAM) read?
A: 6.01 nM

B2: 30 bp dsDNA (dsDNA)
DNA 1: ACCATCATCAAAGACCAAAAGTAGATAAAA
DNA 2: B1 DNA
Q: B2 was tested. Which Kd (His-TEV-ORF1p; [9]) did it give?
A: 28.6 nM

Q: What about the Kd (K3A/K4A-ORF1p; [9]) of the same molecule?
A: 21.8 nM

Q: What about the Kd (ORF1p WT [1]; [9]) of the same molecule?
A: 18.9 nM

Q: And the Kd (ΔStammer-ORF1p; [9])?
A: 26.6 nM

B3: 60 nt RNA (ssRNA)
RNA: GGGCGAAUUGGGUACCGGGCCCCCCCUCGAGGCCGGUAGAGGUGUGGUCAAUAAGAGCGA
Q: Does B3 bind (ORF1p WT [4])?
A: binds

B4: 120 nt RNA (ssRNA)
RNA: GGGCGAAUUGGGUACCGGGCCCCCCCUCGAGGCCGGUAGAGGUGUGGUCAAUAAGAGCGACCUCAUACUAUACCUGAGAAAGCAACCUGACCUACAGGAAAGAGUUACUCAAGAAUAAGA
Q: Does B4 bind (ORF1p WT [5])?
A: binds

Q: Which Kd (ORF1p WT [1]; label: 5' 6-FAM) does the source give for ACCATCATCAAAGACCAAAAGTAGATAAAA (ssDNA) [30 nt ssDNA] here?
A: 8.27 nM

B5: 90 nt RNA (ssRNA)
RNA: GGGCGAAUUGGGUACCGGGCCCCCCCUCGAGGCCGGUAGAGGUGUGGUCAAUAAGAGCGACCUCAUACUAUACCUGAGAAAGCAACCUGA
Q: Does B5 bind (ORF1p WT [6])?
A: binds

B6: WT-ORF1p (LINE-1 ORF1 protein, Homo sapiens) (natural protein, human)
chain: GMGKKQNRKTGNSKTQSASPPPKERSSSPATEQSWMENDFDELREEGFRRSNYSELREDIQTKGKEVENFEKNLEECITRITNTEKCLKELMELKTKARELREECRSLRSRCDQLEERVSAMEDEMNEMKREGKFREKRIKRNEQSLQEIWDYVKRPNLRLIGVPESDVENGTKLENTLQDIIQENFPNLARQANVQIQEIQRTPQRYSSRRATPRHIIVRFTKVEMKEKMLRAAREKGRVTLKGKPIRLTADLSAETLQARREWGPIFNILKEKNFQPRISYPAKLSFISEGEIKYFIDKQMLRDFVTTRPALKELLKEALNMERNNRYQPLQNHAKM
notes: first printed residue of the construct, before the first methionine of ORF1p; left after TEV protease digestion; LINE-1 ORF1p, human, 338 residues as printed; also called pLH2087; source: E. coli BL21(DE3), purified as described previously (19); not shown: His6, N-terminal, cleaved
Q: How did the “stoichiometry N” value [7] turn out when B6 was run?
A: 6 and 3

B7: K3A/K4A-ORF1p (natural protein, human)
chain: B6 chain with K4A, K5A
notes: first printed residue of the construct, before the first methionine of ORF1p; left after TEV protease digestion; LINE-1 ORF1p, human, with the N-terminal basic patch mutated; also called pLH2075; source: E. coli BL21(DE3), purified as described previously (19); not shown: His6, N-terminal, cleaved
Q: Does B7 bind [7]?
A: binds
